Test results: US20240092919A1 (Ablynx, published 2024)
Values joined by “and” are separate entries in the source; they are usually repeats but may differ in a detail not shown here. Equal entries are not always repeated.

Assays:
[1] = target: T1, cynomolgus TCR on primary cynomolgus T cells (cynomolgus); experiment: flow cytometry competition on primary cynomolgus T cells; competitor Flag-tagged T017000623 at EC30
T1 construct: whole, on cells; also called cyno TCRαβ
Protocol: (§1) T cells (human T cells obtained as described in Example 3 and cyno T cells purchased from LPT laboratory, Germany) were thawed and counted on the day of the assay and diluted to a concentration of 1E+06 cells/mL, before adding 75 μL to the wells of a V-bottom 96-well plate (Greiner, cat no 651180). Cells were washed once with cold FACS buffer, before adding 25 μL Nb and 25 μL competitor to the wells. […] Cells were resuspended and plates were incubated at 4° C. for 90 minutes, after which plates were washed twice in cold FACS buffer. […] Plates were washed twice in cold FACS buffer. […] Plates were washed twice in cold FACS buffer. Cells were resuspended in 55 μL 1/1000 diluted Propidium Iodide (Sigma-Aldrich, cat no P4170) in FACS buffer before acquiring data on the MACSQuant X (Miltenyi biotec).

human GPC3 on cells [2] = target: T2, human GPC3 on cells (human, UniProt P51654 25-554); experiment: cell-based or functional assay
human GPC3 on cells [3] = target: T2, human GPC3 on cells; experiment: flow cytometry, binding to Huh-7 cells
human GPC3 on cells [4] = target: T2, human GPC3 on cells; experiment: flow cytometry, binding to CHO-Flp-In cells overexpressing human GPC3
human GPC3 (recombinant) = target: T3, human GPC3 (recombinant) (human, UniProt P51654 25-559); experiment: SPR, ProteOn XPR36; GPC3 captured on anti-His antibody
T3 construct: also called human Glypican-3
Protocol: (§2) Recombinant GPC3 proteins were captured on a GLC Sensor Chip (Biorad) immobilized with THE anti-His antibody (Genscript, cat no ABIN387699) via amine coupling, using EDC and NHS chemistry (running buffer: HBS-EP+, pH7.4). Purified ISVDs were injected for 2 minutes (flow rate 45 μL/min) at different concentrations (between 0.3 nM and 1000 nM) and dissociation was followed for 900 s. Regeneration was performed by injecting 10 mM Glycine-HCl (pH 1.5) for 1 minute (flow rate 45 μL/min). […] Processed sensorgrams were analyzed based on the 1:1 interaction model (Langmuir binding model) using ProteOn Manager 3.1.0 (Version 3.1.0.6) software.

[5] = target: T4, cyno GPC3 (recombinant, in house produced) (cynomolgus, UniProt A0A2K5VK50 24-558); experiment: as above
T4 construct: also called cynomolgus Glypican-3
Protocol: as §2

[6] = target: T5, cyno GPC3 on CHO-Flp-In cells (cynomolgus, UniProt A0A2K5VK50 24-553); experiment: flow cytometry, binding to CHO-Flp-In cells overexpressing cyno GPC3
T5 construct: whole, on cells; also called CHO cyGPC3

[7] = target: T6, Cynomolgus TCR(AEA41865/AEA41866)-zipper protein (cynomolgus); experiment: SPR, ProteOn XPR36; TCR-zipper protein immobilised by amine coupling
T6 construct: also called cyTCR-zipper; cyTCR(AEA41865)-zipper
T6 TCR alpha: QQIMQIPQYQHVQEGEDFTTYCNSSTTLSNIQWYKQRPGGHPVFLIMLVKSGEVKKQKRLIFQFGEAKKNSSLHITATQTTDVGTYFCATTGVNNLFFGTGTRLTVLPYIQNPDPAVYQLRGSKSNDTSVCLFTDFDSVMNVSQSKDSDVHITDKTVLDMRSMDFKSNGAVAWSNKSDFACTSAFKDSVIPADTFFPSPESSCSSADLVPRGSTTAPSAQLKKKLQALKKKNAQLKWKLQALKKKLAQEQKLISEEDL
T6 TCR beta: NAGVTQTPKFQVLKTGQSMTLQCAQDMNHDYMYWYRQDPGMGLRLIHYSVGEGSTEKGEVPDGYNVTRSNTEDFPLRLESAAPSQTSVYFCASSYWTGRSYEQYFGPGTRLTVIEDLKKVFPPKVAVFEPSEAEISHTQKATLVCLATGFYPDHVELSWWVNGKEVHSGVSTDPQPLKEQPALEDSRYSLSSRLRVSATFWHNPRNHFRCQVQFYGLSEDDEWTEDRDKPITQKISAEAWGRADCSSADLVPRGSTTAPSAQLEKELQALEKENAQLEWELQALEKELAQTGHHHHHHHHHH
Protocol: Purified ISVDs were injected for 2 minutes (flow rate 45 μL/min) at different concentrations (between 0.2 nM and 200 nM) and dissociation was followed for 900 s. Regeneration was performed by injecting 3 M MgCl₂ for 3 minutes (flow rate 90 μL/min). […] Processed sensorgrams were analyzed based on the 1:1 interaction model (Langmuir binding model) using ProteOn Manager 3.1.0 (Version 3.1.0.6) software.

[8] = target: T7, human TCR on primary human T cells (human, UniProt P01848 1-140; P01850 1-176); experiment: flow cytometry competition on primary human T cells; competitor Flag-tagged T017000624 at EC30
T7 construct: whole, on cells; also called human TCRαβ
T7 TCR alpha (looked up): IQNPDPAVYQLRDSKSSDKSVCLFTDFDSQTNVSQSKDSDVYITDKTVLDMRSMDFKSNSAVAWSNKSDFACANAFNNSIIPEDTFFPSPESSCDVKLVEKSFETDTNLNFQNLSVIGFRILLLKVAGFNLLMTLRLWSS
T7 TCR beta (looked up): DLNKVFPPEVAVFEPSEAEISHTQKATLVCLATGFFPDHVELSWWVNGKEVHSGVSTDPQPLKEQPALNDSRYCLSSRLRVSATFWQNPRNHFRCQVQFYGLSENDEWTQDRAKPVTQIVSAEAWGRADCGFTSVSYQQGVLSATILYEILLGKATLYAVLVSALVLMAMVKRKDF
Protocol: as §1

[9] = target: T1, cynomolgus TCR on primary cynomolgus T …; experiment: cell-based or functional assay
[10] = target: T7, human TCR on primary human T cells; experiment: cell-based or functional assay
cyno GPC3 on cells = target: T8, cyno GPC3 on cells (cynomolgus monkey, UniProt A0A2K5VK50 24-553); experiment: flow cytometry on cells; lower end, tied by Table 44 to CHO cyGPC3
T8 construct: whole, on cells; also called CHO cyGPC3; CHO-Flp-In cells overexpressing cyno GPC3

human GPC3 on cells [11] = target: T9, human GPC3 on cells (human, UniProt P51654 25-554); experiment: flow cytometry on cells; upper end, tied by Table 44 to CHO huGPC3
T9 construct: whole, on cells; also called CHO huGPC3; CHO-Flp-In cells overexpressing human GPC3

cynomolgus CD33 on cells = target: T10, cynomolgus CD33 on cells (cynomolgus); experiment: flow cytometry on CHO cells transfected with cynomolgus CD33
T10 construct: whole, on cells; also called CHO cy CD33; cyCD33

human CD33 on cells = target: T11, human CD33 on cells (human, UniProt P20138 18-364); experiment: flow cytometry on CHO cells transfected with human CD33
T11 construct: whole, on cells; also called CHO hu CD33; huCD33

[12] = target: T12, cynomolgus CD123 on cells (cynomolgus); experiment: flow cytometry on HEK293 cells transfected with cynomolgus CD123
T12 construct: whole, on cells; also called HEK293 cyno CD123; cyCD123

human CD123 on cells [13] = target: T13, human CD123 on cells (human, UniProt P26951 19-378); experiment: flow cytometry on CHO cells transfected with human CD123
T13 construct: also called CHO human CD123; CHO hu CD123

human CD123 on cells [14] = target: T13, human CD123 on cells; experiment: flow cytometry on CHO Flp-In huCD123 cells; FLAG-tagged ISVD, anti-FLAG + APC goat anti-mouse; MFI (median APC) [panel CHO Flp-In huCD123 cells]
[15] = target: T12, cynomolgus CD123 on cells; experiment: flow cytometry on HEK Flp-In cyCD123 cells; FLAG-tagged ISVD, anti-FLAG + APC goat anti-mouse; MFI (median APC) [panel HEK Flp-In cyCD123 cells]

T11 sequence (P20138 18-364): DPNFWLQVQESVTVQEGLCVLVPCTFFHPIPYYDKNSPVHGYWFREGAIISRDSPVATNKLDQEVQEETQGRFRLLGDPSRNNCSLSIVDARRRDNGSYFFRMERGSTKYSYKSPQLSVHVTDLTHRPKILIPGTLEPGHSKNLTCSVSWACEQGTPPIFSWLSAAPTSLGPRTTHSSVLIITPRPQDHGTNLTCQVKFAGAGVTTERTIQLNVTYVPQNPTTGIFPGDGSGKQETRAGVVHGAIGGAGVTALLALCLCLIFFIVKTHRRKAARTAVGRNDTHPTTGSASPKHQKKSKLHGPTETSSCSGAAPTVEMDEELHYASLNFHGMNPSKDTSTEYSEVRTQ
T13 sequence (P26951 19-378 limits assumed): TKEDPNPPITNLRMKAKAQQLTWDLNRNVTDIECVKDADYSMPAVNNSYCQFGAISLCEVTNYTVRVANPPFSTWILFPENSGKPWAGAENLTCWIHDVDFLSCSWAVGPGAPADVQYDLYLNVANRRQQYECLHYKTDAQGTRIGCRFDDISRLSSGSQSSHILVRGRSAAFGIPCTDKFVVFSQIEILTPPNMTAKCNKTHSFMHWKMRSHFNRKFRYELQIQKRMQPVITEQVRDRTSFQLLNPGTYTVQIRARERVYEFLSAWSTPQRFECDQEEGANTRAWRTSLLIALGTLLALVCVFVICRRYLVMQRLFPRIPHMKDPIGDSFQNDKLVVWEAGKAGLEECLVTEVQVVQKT

B1: A022600424 (other)
chain: DVQLVESGGGVVQPGGSLRLSCVASGYVHKINFYGWYRQAPGKEREKVAHISIGDQTDYADSAKGRFTISRDESKNTVYLQMNSLRPEDTAAYYCRALSRIWPYDYWGQGTLVTVSSGGGGSEVQLVESGGGVVQPGGSLRLSCAASGFTFSSFAMTWVRRPPGKGLEWVATITNKGVTSYADSVKGRFTISRDNAKNTLYLQMNSLRPEDTALYICANARRTGPRAPTDIGSYRGQGTLVTVSSGGGGSGGGSEVQLVESGGGVVQPGGSLRLSCAASGSIFRSVFSSSTMEWYRQAPGKKRELVARIAPGEGTYYGALYADSVKGRFTISRDNAKNTVYLQMNSLRPEDTALYYCASGVAWGQGTLVTVSSGGGGSGGGSEVQLVESGGGVVQPGGSLRLSCAASGFTFRSFGMSWVRQAPGKGPEWVSSISGSGSDTLYADSVKGRFTISRDNSKNTLYLQMNSLRPEDTALYYCTIGGSLSRSSQGTLVTVSSA
notes: also called T017000680-5GS-A022600351-9GS-A022600314-9GS-ALB23002-A
For B1, the IC50 [1] was 250 nM, the “IC50 (M) BxPC-3, xCELLigence human TDC assay, E:T 15:1, 60 h” value (human GPC3 on cells [2]) was greater than 1e-07 M and the “IC50 (M) HepG2, xCELLigence human TDC assay, E:T 15:1, 60 h” value (human GPC3 on cells [2]) was 1.15e-10 M. The “IC50 (M) Huh-7, xCELLigence human TDC assay, E:T 15:1, 60 h” value (human GPC3 on cells [2]) was 1.16e-10 M, the “IC50 (M) NCI-H23, xCELLigence human TDC assay, E:T 15:1, 60 h” value (human GPC3 on cells [2]) was greater than 1e-07 M and the “IC50 (M) NCI-H661, xCELLigence human TDC assay, E:T 15:1, 60 h” value (human GPC3 on cells [2]) was 1.14e-10 M. The EC50 (human GPC3 on cells [3]) was 1.25 nM, the EC50 (human GPC3 on cells [4]) was 1.82 nM and the Kd (human GPC3 (recombinant)) was less than 5.6 pM. The Kd [5] was less than 5.9 pM, the EC50 [6] was 1.11 nM and the Kd [7] was 5.4 nM. For the same binder, the IC50 [8] was 170 nM, the “Primary cy T cells IC50 (M), xCELLigence TDC assay on Huh-7, E:T 15:1, 60 h” value [9] was 2.29e-10 M and the “Primary hu T cells IC50 (M), xCELLigence TDC assay on Huh-7, E:T 15:1, 60 h” value [10] was 7.59e-11 M.

B2: A022600424 (other)
chain: B1 chain
notes: as for B1
B2 gave an EC50 (cyno GPC3 on cells) of 1 to 2 nM and an EC50 (human GPC3 on cells [11]) of 1 to 2 nM.

B3: monovalent CD33 building block (SEQ ID NO: 463) (VHH)
VHH: EVQLVESGGGVVQPGGSLRLSCAASGGVFRLNSMGWFRQAPGKQRELVAIITSDGDTNYADSVKGRFTISRDQAKNTVYLQMNSLRPEDTALYYCQITYSTSSYSFPINTWGQGTLVTVSS
With B3 the EC50 (cynomolgus CD33 on cells) was 5.7 nM and 12 nM and the EC50 (human CD33 on cells) was 6.2 nM and 5.5 nM and 7.7 nM.

B4: monovalent CD123 building block (SEQ ID NO: 462) (VHH)
VHH: EVQLVESGGGVVQPGGSLRLSCAASGVIFSGNVMGWYRRQAPGKEREWVAAIAEGGSILYRDSVKGRFTISRDNAKNTVYLQMNSLRPEDTALYYCNSHPPVLPYWGQGTLVTVSS
B4 was tested, and the EC50 [12] was 0.8 nM, the EC50 (human CD123 on cells [13]) was 0.31 nM and 0.2 nM and the “EC50 (read off the curve)” value (human CD123 on cells [14]) was roughly 700 pM. The “EC50 (read off the curve)” value [15] was roughly 300 pM.
